In patent US20230295310A1 (ABCELLERA BIOLOGICS, published 2023):
Where a chain is given by its changes, count along the chain named.

B1: GOMP001_bsAb_024 (bispecific antibody, human IgG1, kappa, L234A L235A)
heavy 1: QGQLVESGGGVVQPGRSLRLSCEASGFTFRSYGMHWVRYPPGKGLEWVAIIWYDGGKKYYGDRVKGRFTISRDNPKNTLYLQMNSLRPEDTAVYYCMAYDYSNGFDIWGRGTMVTVSSASTKGPSVFPLAPSSKSTSGGTAALGCLVKDYFPEPVTVSWNSGALTSGVHTFPAVLQSSGLYSLSSVVTVPSSSLGTQTYICNVNHKPSNTKVDKKVEPKSCDKTHTCPPCPAPEAAGGPSVFLFPPKPKDTLMISRTPEVTCVVVDVSHEDPEVKFNWYVDGVEVHNAKTKPREEQYNSTYRVVSVLTVLHQDWLNGKEYKCKVSNKALPAPIEKTISKAKGQPRRPRVYTLPPSREEMTKNQVSLVCLVKGFYPSDIAVEWESNGQPENNYKTTPPVLDSDGSFFLYSVLTVDKSRWQQGNVFSCSVMHEALHNHYTQKSLSLSPG
light 1: DIVMTQTPLSSPVTLGQPASISCRSSQSFVHSDGSTYLSWLQRRPGDPPRLLIYKISNRFSGVPDRFSGRGAGTDFTLKISRVEAEDVGIYYCMQNTQFPYTFGQGTKLEIKRTVAAPSVFIFPPSDEQLKSGTASVVCLLNNFYPREAKVQWKVDNALQSGNSQESVTEQDSKDSTYSLSSTLTLSKADYEKHKVYACEVTHQGLSSPVTKSFNRGEC
heavy 2: QVQLVQSGAEVKKPGASVKVSCKASGYTFTSHWMHWVRYAPGQGLEWIGEFNPSNGRTNYNEKFKSKATMTVDTSTNTAYMELSSLRSEDTAVYYCASRDYDYDGRYFDYWGRGTLVTVSSASTKGPSVFPLAPSSKSTSGGTAALGCLVKDYFPEPVTVSWNSGALTSGVHTFPAVLQSSGLYSLSSVVTVPSSSLGTQTYICNVNHKPSNTKVDKKVEPKSCDKTHTCPPCPAPEAAGGPSVFLFPPKPKDTLMISRTPEVTCVVVDVSHEDPEVKFNWYVDGVEVHNAKTKPREEQYNSTYRVVSVLTVLHQDWLNGKEYKCKVSNKALPAPIEKTISKAKGQPRRPRVYTLPPSREEMTKNQVSLVCLVKGFYPSDIAVEWESNGQPENNYKTTPPVLDSDGSFFLYSVLTVDKSRWQQGNVFSCSVMHEALHNHYTQKSLSLSPG
light 2: DIQMTQSPSSLSASVGDRVTITCSASSSVTYMYWYQRKPGDAPKLLIYDTSNLASGVPSRFSGSGSGTDYTFTISSLQPEDIATYYCQQWSSHIFTFGQGTKVEIKRTVAAPSVFIFPPSDEQLKSGTASVVCLLNNFYPREAKVQWKVDNALQSGNSQESVTEQDSKDSTYSLSSTLTLSKADYEKHKVYACEVTHQGLSSPVTKSFNRGEC
B2: GOMP001_bsAb_032 (bispecific antibody, human IgG1, kappa, L234A L235A)
heavy 1: QGQLVESGGGVVQPGRSLRLSCAASGFTFRGFGMHWVRYAPGKGLEWVAIIYYDGKNKYYADRVKGRFTISRDNSKNTLYLQMNSLRAEDTAVYYCAKGGGYNWFDPWGRGTLVTVSSASTKGPSVFPLAPSSKSTSGGTAALGCLVKDYFPEPVTVSWNSGALTSGVHTFPAVLQSSGLYSLSSVVTVPSSSLGTQTYICNVNHKPSNTKVDKKVEPKSCDKTHTCPPCPAPEAAGGPSVFLFPPKPKDTLMISRTPEVTCVVVDVSHEDPEVKFNWYVDGVEVHNAKTKPREEQYNSTYRVVSVLTVLHQDWLNGKEYKCKVSNKALPAPIEKTISKAKGQPRRPRVYTLPPSREEMTKNQVSLVCLVKGFYPSDIAVEWESNGQPENNYKTTPPVLDSDGSFFLYSVLTVDKSRWQQGNVFSCSVMHEALHNHYTQKSLSLSPG
light 1: DIQMTQSPSSLSASVGDRVTITCRASQSISTYLNWYQRKPGDAPKLLIYSASSLQSGVPSRFSGSGSGTDFTLTISNLQPEDFAIYYCQRSYSPPFTFGPGTKLDIRRTVAAPSVFIFPPSDEQLKSGTASVVCLLNNFYPREAKVQWKVDNALQSGNSQESVTEQDSKDSTYSLSSTLTLSKADYEKHKVYACEVTHQGLSSPVTKSFNRGEC
heavy 2: B1 heavy 2
light 2: B1 light 2
B3: GOMP001_bsAb_030 (bispecific antibody, human IgG1, kappa, L234A L235A)
heavy 1: QVQLVQSGAEVKKPGASVKVSCKASGYTVTGYYMHWVRYAPGQGLEWMGWINPNSGGTNFAQRFQGRVTMTRDTSISTFYMDLNRLRSDDTAVYYCARGGAPVSYWFFDLWGRGTLVTVSSASTKGPSVFPLAPSSKSTSGGTAALGCLVKDYFPEPVTVSWNSGALTSGVHTFPAVLQSSGLYSLSSVVTVPSSSLGTQTYICNVNHKPSNTKVDKKVEPKSCDKTHTCPPCPAPEAAGGPSVFLFPPKPKDTLMISRTPEVTCVVVDVSHEDPEVKFNWYVDGVEVHNAKTKPREEQYNSTYRVVSVLTVLHQDWLNGKEYKCKVSNKALPAPIEKTISKAKGQPRRPRVYTLPPSREEMTKNQVSLVCLVKGFYPSDIAVEWESNGQPENNYKTTPPVLDSDGSFFLYSVLTVDKSRWQQGNVFSCSVMHEALHNHYTQKSLSLSPG
light 1: DIQMTQSPSSLSASVGDRVTITCRASQSISRYLNWYQRKPGDAPKVLIYNTSSLKSGVPSRFSGSGSGTDFTLTISSLQPEDFGTFYCQQSHSTPFTFGPGTKVDIKRTVAAPSVFIFPPSDEQLKSGTASVVCLLNNFYPREAKVQWKVDNALQSGNSQESVTEQDSKDSTYSLSSTLTLSKADYEKHKVYACEVTHQGLSSPVTKSFNRGEC
heavy 2: B1 heavy 2
light 2: B1 light 2
B4: GOMP001_bsAb_029 (bispecific antibody, human IgG1, kappa, L234A L235A)
heavy 1: QVQLVQSGAEVKKPGASVKVSCKASGYTFTSHWMHWVRKAPGQGLEWIGEFNPSNGRTNYNEEFKSKATMTVDTSTNTAYMELSSLRSEDTAVYYCASRDYDYDGRYFDYWGQGTLVTVSSASTKGPSVFPLAPSSKSTSGGTAALGCLVADYFPEPVTVSWNSGALTSGVHTFPAVLQSSGLYSLSSVVTVPSSSLGTQTYICNVNHKPSNTKVDEKVEPKSCDKTHTCPPCPAPEAAGGPSVFLFPPKPKDTLMISRTPEVTCVVVDVSHEDPEVKFNWYVDGVEVHNAKTKPREEQYNSTYRVVSVLTVLHQDWLNGKEYKCKVSNKALPAPIEKTISKAKGQPREPQVYTLPPSREEMTDNQVSLTCLVKGFYPSDIAVEWESNGQPENNYKTTPPVLMSDGSFFLASKLTVDKSRWQQGNVFSCSVMHEALHNHYTQKSLSLSPG
light 1: B1 light 2 with D1R, R37D, D41K, E122K, S130R
heavy 2: B3 heavy 1
light 2: B3 light 1
B5: GOMP001_bsAb_031 (bispecific antibody, human IgG1, kappa, L234A L235A)
heavy 1: B4 heavy 1
light 1: B1 light 2 with D1R, R37D, D41K, E122K, S130R
heavy 2: B2 heavy 1
light 2: B2 light 1
B6: GOMP001_bsAb_037 (bispecific antibody, human IgG1, kappa, L234A L235A)
heavy 1: B4 heavy 1
light 1: B1 light 2 with D1R, R37D, D41K, E122K, S130R
heavy 2: EVQLVESGGVLVKTGGSLRLSCVASGFSFKKAWMNWVRYAPGKGLEWVGRIKRNSDGGAADYAARVKDRFTLSRDDSKNTLYLQMNSLKTEDTAVYYCTTLDSSSWYVGYYYMDVWGRGTTVTVSSASTKGPSVFPLAPSSKSTSGGTAALGCLVKDYFPEPVTVSWNSGALTSGVHTFPAVLQSSGLYSLSSVVTVPSSSLGTQTYICNVNHKPSNTKVDKKVEPKSCDKTHTCPPCPAPEAAGGPSVFLFPPKPKDTLMISRTPEVTCVVVDVSHEDPEVKFNWYVDGVEVHNAKTKPREEQYNSTYRVVSVLTVLHQDWLNGKEYKCKVSNKALPAPIEKTISKAKGQPRRPRVYTLPPSREEMTKNQVSLVCLVKGFYPSDIAVEWESNGQPENNYKTTPPVLDSDGSFFLYSVLTVDKSRWQQGNVFSCSVMHEALHNHYTQKSLSLSPG
light 2: DIHMTQSPSSVSASLGDRVTFTCRASQNINNWLAWYQRKPGDAPKLLIYTASSLQSGVPSRFSGSGSGTDFTLTISSLQPDDFATYYCQQAHSLPITFGQGTRLGIKRTVAAPSVFIFPPSDEQLKSGTASVVCLLNNFYPREAKVQWKVDNALQSGNSQESVTEQDSKDSTYSLSSTLTLSKADYEKHKVYACEVTHQGLSSPVTKSFNRGEC

biological target: human EGFR, C-terminal eGFP-tagged, on CHO-K1 cells (human, UniProt P00533 25-1210); experiment: cell-based or functional assay

| EC50 CHO-K1 EGFR Low (nM); T cell activation bioassay, luciferase [nM] | EC50 CHO-K1 EGFR Med (nM); T cell activation bioassay, luciferase [nM] | Binder |
| --- | --- | --- |
| 0.245 | 0.122 | B1 |
| 0.122 | 0.0482 | B2 |
| 0.0644 | 0.00272 | B3 |
| 0.271 | 0.0226 | B4 |
| 1.66 | 0.446 | B5 |
| 0.183 | 0.028 | B6 |
